Laboratory results reported in patent publication US20020155575.
Where “and” joins values, the source holds several entries; their conditions need not be identical. Equal values may be shown once.

T1: trypsin inhibitor type IV-0 (Ovo-inhibitor), Sigma T-1886 (UniProt P10184)
T1 sequence: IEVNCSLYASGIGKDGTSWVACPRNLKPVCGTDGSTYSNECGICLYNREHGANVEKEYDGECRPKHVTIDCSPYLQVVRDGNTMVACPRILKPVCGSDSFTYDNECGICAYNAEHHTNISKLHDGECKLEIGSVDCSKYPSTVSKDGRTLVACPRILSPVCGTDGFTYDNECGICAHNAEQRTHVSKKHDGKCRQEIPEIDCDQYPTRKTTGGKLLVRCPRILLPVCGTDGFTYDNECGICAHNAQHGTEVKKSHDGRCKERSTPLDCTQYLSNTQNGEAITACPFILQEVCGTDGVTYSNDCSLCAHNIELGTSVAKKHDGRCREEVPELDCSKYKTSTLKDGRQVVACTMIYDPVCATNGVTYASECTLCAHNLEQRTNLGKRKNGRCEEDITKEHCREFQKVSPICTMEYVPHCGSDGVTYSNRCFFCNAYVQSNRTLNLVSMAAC

T2: trypsin inhibitor type IV-0 (Ovo-inhibitor), Sigma T-1886, P10184
T2 chain: T1 sequence

B1: SAVINASE (subtilisin 309 from B. lentus) (protein)
chain: AQSVPWGISRVQAPAAHNRGLTGSGVKVAVLDTGISTHPDLNIRGGASFVPGEPSTQDGNGHGTHVAGTIAALNNSIGVLGVAPSAELYAVKVLGASGSGSVSSIAQGLEWAGNNGMHVANLSLGSPSPSATLEQAVNSATSRGVLVVAASGNSGAGSISYPARYANAMAVGATDQNNNRASFSQYGAGLDIVAPGVNVQSTYPGSTYASLNGTSMATPHVAGAAALVKQKNPSWSNVQIRNHLKNTATSLGSTNLYGSGLVNAEAATR

Biological target: T1, trypsin inhibitor type IV-0 (Ovo-inhibitor), Sigma T-1886

Row | Molecule | Residual Activity (%)
1 | subtilisin 309 variant L42LN | 69.2%
2 | subtilisin 309 variant L217LP + S99SD + S99A | 97.0%
3 | subtilisin 309 variant S99D + S101R + S103A + V104I + G160S + A194P + V199M + V205I + *216aD | 24.0%
4 | subtilisin 309 variant S99D + S101R + S103A + V104I + G160S + A194P + V199M + V205I + *216aE | 25.4%
5 | subtilisin 309 variant S99SD + S99A + N155NA | 7.4%
6 | subtilisin 309 variant S99SD + S99A + N155ND | 10.7% and 7.1%
7 | subtilisin 309 variant S99SD + S99A + N155NR | 6.5%
8 | subtilisin 309 variant S99SD + S99A + S216SDP | 35.0%

Biological target: T2, trypsin inhibitor type IV-0 …

Row | Molecule | Residual Activity (%)
9 | B1 | <5
